Measured values from patent US20200031915A1, “IMMUNOGLOBULIN-BINDING PEPTIDE WITH IMPROVED STABILITY” (KANEKA CORPORATION, priority 2017, published 2020).

Biological target: T1, Fab fragment of humanized monoclonal IgG (Infliximab) (Homo sapiens, UniProt P01834+P01857)
T1 construct: fragmented into a Fab fragment and an Fc fragment by using papain, and the Fc fragment and Fab fragment were purified; purchased Mitsubishi Tanabe Pharma Corporation Remicade (Infliximab)
Assay: Residual Fab-binding activity of GB1#-N08K after alkali treatment (Biacore SPR)
Conditions: 15 mM NaOH final (0.1 mL of 45 mM NaOH added to 0.2 mL of 20 μM peptide), 25° C., 2 hours; ratio to before treatment as 100%; N=4

T1 sequence (P01857 with tags, fused parts or gaps limits assumed, other chains not shown): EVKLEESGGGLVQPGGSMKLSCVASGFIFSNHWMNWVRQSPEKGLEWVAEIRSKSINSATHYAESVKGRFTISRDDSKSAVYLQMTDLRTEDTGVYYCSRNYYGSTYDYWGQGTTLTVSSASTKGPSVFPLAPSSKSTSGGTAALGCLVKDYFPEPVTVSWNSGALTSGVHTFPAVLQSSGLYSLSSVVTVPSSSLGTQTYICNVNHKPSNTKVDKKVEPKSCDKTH

Substance	residual binding activity to Fab after alkali treatment [%]
GB1#-N08A: Comparative example: GB1#-Cont (SEQ ID NO: 4) with mutation N08A; amino acid SEQ ID NO: 41 (TTYKLILAGKTLTGYTTTIAVDAATAEKVLKQFANDNGVDGEWTYDDATKTFTVTE; Altered SpG)	68
GB1#-N08K: GB1#-Cont (SEQ ID NO: 4), strong binding ability to Fab, with mutation N08K introduced; amino acid SEQ ID NO: 32 (TTYKLILKGKTLTGYTTTIAVDAATAEKVLKQFANDNGVDGEWTYDDATKTFTVTE; oligo DNA)	80
